Reference: patent US20240226274A1
Values joined by “and” are separate entries in the source; they are usually repeats but may differ in a detail not shown here. Equal values may be shown once.

Assays:
[1] = molecular target: RSV F DS-Cav1 (respiratory syncytial virus); test: BLI; antibody on Protein A sensor, F protein in solution; RT, not heated
[2] = molecular target: RSV F design R-1b (respiratory syncytial virus (A2 strain)); test: as above
[3] = molecular target: postfusion RSV A2 F (respiratory syncytial virus A2) (UniProt P03420); test: as above
[4] = molecular target: postfusion RSV A2 F (respiratory syncytial virus A2) (UniProt P03420); test: BLI; antibody on Protein A sensor; F protein heated 1 h at 60 C
[5] = molecular target: RSV F DS-Cav1 (respiratory syncytial virus); test: BLI; antibody on Protein A sensor; F protein heated 1 h at 55 C
[6] = molecular target: RSV F design R-1b (respiratory syncytial virus (A2 strain)); test: as above
[7] = molecular target: RSV F DS-Cav1 (respiratory syncytial virus); test: BLI; antibody on Protein A sensor; F protein heated 1 h at 60 C
[8] = molecular target: hMPV F design M-104 (human metapneumovirus) (UniProt Q6WB98); test: BLI; antibody on Protein A sensor, F protein in solution; RT, not heated
[9] = molecular target: hMPV F 115-BV (human metapneumovirus) (UniProt Q6WB98); test: as above
[10] = molecular target: hMPV F design M-104 (human metapneumovirus) (UniProt Q6WB98); test: BLI; antibody on Protein A sensor; F protein heated 1 h at 55 C

Substance	Kd [1]	kon [1]	Kd [2]	koff [2]	kon [2]	kon [3]	kon [4]	kon [5]	Kd [6]	koff [6]	kon [6]	kon [7]	kon [8]	kon [9]	kon [10]
antibody 131-2A	133 nM and 34.4 nM and 17.4 nM	8290 M⁻¹ s⁻¹ and 9190 M⁻¹ s⁻¹ and 17600 M⁻¹ s⁻¹	6.47 nM and 7.43 nM and 11.9 nM	0.00031 s⁻¹ and 0.000353 s⁻¹ and 0.0004 s⁻¹	47900 M⁻¹ s⁻¹ and 47500 M⁻¹ s⁻¹ and 33700 M⁻¹ s⁻¹	400000 M⁻¹ s⁻¹ and 409000 M⁻¹ s⁻¹ and 485000 M⁻¹ s⁻¹	522000 M⁻¹ s⁻¹ and 482000 M⁻¹ s⁻¹ and 452000 M⁻¹ s⁻¹								
antibody AM14		161000 M⁻¹ s⁻¹ and 204000 M⁻¹ s⁻¹ and 181000 M⁻¹ s⁻¹	0.497 nM and 0.489 nM and 0.568 nM	0.000111 s⁻¹ and 0.000124 s⁻¹ and 0.000101 s⁻¹	203000 M⁻¹ s⁻¹ and 227000 M⁻¹ s⁻¹ and 219000 M⁻¹ s⁻¹			50300 M⁻¹ s⁻¹ and 58500 M⁻¹ s⁻¹ and 50100 M⁻¹ s⁻¹	0.134 nM and 0.133 nM	1.15e-05 s⁻¹ and 1.31e-05 s⁻¹	88700 M⁻¹ s⁻¹ and 86300 M⁻¹ s⁻¹ and 99100 M⁻¹ s⁻¹				
antibody D25		121000 M⁻¹ s⁻¹ and 187000 M⁻¹ s⁻¹ and 149000 M⁻¹ s⁻¹			179000 M⁻¹ s⁻¹ and 144000 M⁻¹ s⁻¹ and 151000 M⁻¹ s⁻¹			213000 M⁻¹ s⁻¹ and 160000 M⁻¹ s⁻¹ and 142000 M⁻¹ s⁻¹			156000 M⁻¹ s⁻¹ and 120000 M⁻¹ s⁻¹ and 121000 M⁻¹ s⁻¹	115000 M⁻¹ s⁻¹ and 135000 M⁻¹ s⁻¹ and 132000 M⁻¹ s⁻¹			
antibody MPE8													40100 M⁻¹ s⁻¹ and 32400 M⁻¹ s⁻¹ and 42100 M⁻¹ s⁻¹	14500 M⁻¹ s⁻¹ and 15200 M⁻¹ s⁻¹ and 10900 M⁻¹ s⁻¹	36600 M⁻¹ s⁻¹ and 21700 M⁻¹ s⁻¹ and 25100 M⁻¹ s⁻¹
